# ± gives the uncertainty stated by the source.
# Experiment: protein stability index of a GFP-peptide fusion (yeast GPS) (PSI 1-4); higher = more stable; sorted into four equal gates, so the index is relative within each strain
# Procedure, shortened: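 Tiled 17-residue yeast protein peptides were fused downstream of GFP in a plasmid that also expresses Cherry, and the pooled library was carried in yeast. Mid-log cultures in leucine-free medium were sorted into four equal gates by GFP/Cherry fluorescence ratio, and plasmids from each gate were PCR-amplified and Illumina-sequenced, with reads assigned to strains by barcodes. The protein stability index for each peptide was each gate's read frequency times its gate number, summed.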
Sequence,protein stability index (doa10∆),protein stability index (pdr5∆),protein stability index (san1∆),protein stability index (ubr1∆)
EGIKVVDIDDPDMMVDS [SNF2],3 ± 0.17,3.14 ± 0.19,3.12 ± 0.094,2.97 ± 0.091
QLSKAAKAAAALAGGKK [RPS25A],1.7 ± 0.057,1.86 ± 0.067,1.82 ± 0.08,1.77 ± 0.047
QNDFLFSVGESLSVVAG [ECM29],2.61 ± 0.065,3.08 ± 0.12,2.92 ± 0.11,2.71 ± 0.061
FEEWIKMATDNKINSRN [BRN1],3.27 ± 0.13,3.17 ± 0.096,3.27 ± 0.11,3.7 ± 0.14
ERKTLERQQENLLIQRL [SWI3],3.07 ± 0.09,3.28 ± 0.087,3.12 ± 0.078,3.09 ± 0.067
SGRTVISPDPNLSIDEV [RPO31],2.4 ± 0.063,1.97 ± 0.06,2.03 ± 0.099,1.92 ± 0.057
ETATSERNASEVRDATL [GRR1],3.53 ± 0.19,3.45 ± 0.19,,3.52 ± 0.19
LSLKRTLTDILEDELYH [RPN4],3.11 ± 0.1,3.52 ± 0.11,3.47 ± 0.11,3.15 ± 0.11
RESFEDNVVRFLNEARD [RPO21],3.21 ± 0.15,2.98 ± 0.13,3.04 ± 0.16,2.92 ± 0.11
NNYPNVELTYSLNNSDS [BRR2],2.99 ± 0.14,2.42 ± 0.18,,
DVKKRTYEAIDVPGREL [RPB2],1.99 ± 0.15,3.35 ± 0.16,2.62 ± 0.23,3.57 ± 0.17
WVKKFKWAGIKTRKFVF [CYT1],1.14 ± 0.12,1.51 ± 0.1,,1.27 ± 0.074
GLSAREAVKQAAKIIYL [PRE10],2.86 ± 0.096,2.59 ± 0.063,2.59 ± 0.1,2.52 ± 0.053
FALIDYFYDLDVLKDGE [BRN1],2.86 ± 0.049,2.76 ± 0.057,3.04 ± 0.061,2.79 ± 0.049
GDMTNSDAQSNLGSNVR [REC8],2.92 ± 0.28,3.52 ± 0.15,2.87 ± 0.17,3.25 ± 0.096
LLVQSLNDMVLELKENY [NNF1],2.75 ± 0.14,1.52 ± 0.1,,
AAEFRYKYGYDMPCDVL [SCL1],2.64 ± 0.078,2.79 ± 0.057,2.69 ± 0.054,2.33 ± 0.059
LQDELKELQLEKESVEK [SMC3],3.66 ± 0.13,3.25 ± 0.21,2.7 ± 0.26,
NQILQTEIENYLLENNQ [YDL116W/NUP84],1.88 ± 0.052,2.24 ± 0.038,2.19 ± 0.066,2.13 ± 0.043
ASLGIGLAAMGSANIEV [RPN2],1.65 ± 0.088,1.76 ± 0.079,1.74 ± 0.091,1.53 ± 0.067
RLRQGAAKLRTLDYAER [RPL2A],1.61 ± 0.071,1.51 ± 0.049,1.56 ± 0.12,1.56 ± 0.048
SKEVRGSKIRVMWGKVT [RPL33A],2.68 ± 0.1,2.35 ± 0.12,2.4 ± 0.092,2.6 ± 0.067
HRDKNKMDMICRNINRK [DIS3],2.32 ± 0.081,2.99 ± 0.17,2.41 ± 0.083,3.33 ± 0.12
YDNGQVFPSSILDITDE [RPP0],1.91 ± 0.048,1.79 ± 0.077,2.42 ± 0.093,1.32 ± 0.073
ARDEILPLRLQFNEFIQ [PGD1],2.55 ± 0.083,3.01 ± 0.065,2.74 ± 0.078,2.79 ± 0.058
FNYNIFMHDPSVFYNIA [SIR2],1.46 ± 0.055,1.69 ± 0.037,1.5 ± 0.073,1.76 ± 0.048
DLSVTPQKSSSKGFVFN [YAR002W/NUP60],2.74 ± 0.089,3.06 ± 0.12,2.88 ± 0.057,3.06 ± 0.12

Sequence,protein stability index (doa10∆),protein stability index (pdr5∆),protein stability index (san1∆),protein stability index (ubr1∆)
STSGDPSEFHCLQDALD [SSN2],3.07 ± 0.16,3.1 ± 0.12,3.08 ± 0.068,3.43 ± 0.11
NFNASLQLTTNTEQGDS [SNM1],2.02 ± 0.039,2.3 ± 0.064,2.49 ± 0.055,1.85 ± 0.071
IDQDIHGIVFQHPFPLA [SSN2],2.13 ± 0.044,2.25 ± 0.051,2.24 ± 0.059,2.64 ± 0.032
PIKNRKNDTHYLLPDDF [BRN1],2.98 ± 0.079,2.93 ± 0.094,2.85 ± 0.061,2.95 ± 0.058
PEDAQLLLAANTHLGAR [RPS0A],1.63 ± 0.058,1.39 ± 0.052,1.63 ± 0.12,1.9 ± 0.068
STMGTPTVHNSTAAAPI [PGD1],2.83 ± 0.095,3.07 ± 0.059,2.76 ± 0.06,2.93 ± 0.049
GVSRQIAASAFLSLLNL [REC8],1.5 ± 0.047,1.31 ± 0.045,1.17 ± 0.14,1.23 ± 0.038
IKIEPSADDDVNNGNIP [SIR3],2.12 ± 0.098,2.44 ± 0.14,2.58 ± 0.15,2.76 ± 0.13
SPELKAELRPLQFKSIR [RPS7A],2.91 ± 0.11,3.54 ± 0.11,2.61 ± 0.14,3.07 ± 0.12
FMLILALFVFYSPNTLG [COB],2.28 ± 0.074,2.15 ± 0.057,2.46 ± 0.056,2.52 ± 0.053
NYASVYPVVEVERGRVG [RRP43],3.48 ± 0.14,3.57 ± 0.11,3.43 ± 0.093,3.42 ± 0.056
KSKLDQDSTSENVKIIN [RPN2],3.39 ± 0.07,3.3 ± 0.065,2.97 ± 0.074,3.18 ± 0.08
YIELLPNADDIRDSIPQ [DIS3],2.83 ± 0.075,2.85 ± 0.068,2.87 ± 0.078,2.75 ± 0.039
PAFSFNSSVGNKTDAQA [YJL041W/NSP1],2.82 ± 0.14,3.47 ± 0.11,2.85 ± 0.1,3.16 ± 0.085
MEMSEKIQFILEQMELS [RPN5],,2.65 ± 0.24,2.35 ± 0.29,2.66 ± 0.19
PSAVAGFINQKNLKPQE [YIL149C/MLP2],3.16 ± 0.099,3.1 ± 0.084,2.98 ± 0.05,3.02 ± 0.042
NKLMEKDFQVNKEIKPY [SIR4],3.35 ± 0.059,3.38 ± 0.054,3.12 ± 0.059,3.28 ± 0.047
KHLWDQKSLAALKKSRS [RPC17],2.75 ± 0.12,2.97 ± 0.072,2.92 ± 0.083,2.81 ± 0.07
PGQKMSLFSHRKHTRGD [BRN1],3.34 ± 0.23,2.95 ± 0.21,3.31 ± 0.15,3.22 ± 0.062
GAALKDIEIVRVNKNAP [FAS2],3.09 ± 0.092,3.24 ± 0.12,3.21 ± 0.089,3.31 ± 0.084
KLREKVNDVELAFKKNE [MTW1],3.1 ± 0.13,3.02 ± 0.13,3 ± 0.15,3.06 ± 0.21
PRVKGFKMNEIVPLHSP [SEC65],2.89 ± 0.087,3.01 ± 0.12,3.09 ± 0.079,2.87 ± 0.066
LLQSSIINKLIHIQSKE [POP3],2.49 ± 0.069,2.5 ± 0.044,1.91 ± 0.058,2.28 ± 0.048
QQNPKFLQSQRQQQQRS [SWI1],2.47 ± 0.06,1.94 ± 0.063,2.67 ± 0.057,2.05 ± 0.067
LYPCYFDINRSHKEGRR [SEC65],1.15 ± 0.17,1.93 ± 0.16,1.09 ± 0.24,1.1 ± 0.08
EPSGIYSSWSAQTIGRN [PRE6],1.24 ± 0.064,1.21 ± 0.089,1.06 ± 0.18,1.53 ± 0.097
